Test results reported in patent US20080317767A1, “Tripartitle Raftophilic Strutures and their Use” (priority 2004, published 2008).
Where a SMILES comes first, the peptide text is derived from it. [ ]: non-standard residue; d: D form. The star is where a group is joined. Piperazinyl(4-RhodamineB) = CCN(CC)c1ccc2c(-c3ccccc3C(=O)N3CCN(*)CC3)c3ccc(=[N+](CC)CC)cc-3oc2c1; X1 = CC(C)CCC[C@@H](C)[C@H]1CCC2C3CCC4C[C@@H](O*)CC[C@]4(C)C3CC[C@@]21C; Sta = CC(C)C[C@H](N)[C@@H](O)CC(=O)O; βAla = NCCC(=O)O

Experiment: Qualitative solubility assessment in an aqueous medium
Type: physicochemical

CCN(CC)c1ccc2c(-c3ccccc3C(=O)N3CCN(C(=O)CC[C@H](N)C(=O)NCCC(=O)NCC(=O)N[C@@H](CCC(=O)O)C(=O)N[C@H](C(=O)N[C@@H](CC(N)=O)C(=O)N[C@@H](CC(C)C)[C@@H](O)CC(=O)N[C@H](C(=O)N[C@@H](C)C(=O)N[C@@H](CCC(=O)O)C(=O)N[C@@H](Cc4ccccc4)C(=O)N[C@@H](CCCNC(=N)N)C(=O)N[C@@H](Cc4c[nH]cn4)C(=O)N[C@@H](CC(=O)O)C(=O)N[C@@H](CO)C(=O)NCC(=O)N[C@@H](Cc4ccc(O)cc4)C(=O)N[C@@H](CCC(=O)O)C(=O)N[C@H](C(=O)N[C@@H](Cc4c[nH]cn4)C(=O)N[C@@H](Cc4c[nH]cn4)C(=O)N[C@@H](CCC(N)=O)C(=O)N[C@@H](CCCCN)C(=O)N[C@@H](CC(C)C)C(=O)N[C@H](C(=O)N[C@@H](Cc4ccccc4)C(=O)N[C@@H](Cc4ccccc4)C(=O)N[C@@H](C)C(=O)N[C@@H](CCC(=O)O)C(=O)N[C@@H](CC(=O)O)C(=O)N[C@H](C(=O)NCC(=O)N[C@@H](CO)C(=O)N[C@@H](CC(N)=O)C(=O)N[C@@H](CCCCN)C(=O)N[C@@H](CC(=O)O[C@H]4CC[C@@]5(C)C(CCC6C5CC[C@@]5(C)C6CC[C@@H]5[C@H](C)CCCC(C)C)C4)C(N)=O)C(C)C)C(C)C)C(C)C)C(C)C)C(C)C)CC3)c3ccc(=[N+](CC)CC)cc-3oc2c1 (stereo partly shown) [compound 24b] (H-E(Piperazinyl(4-RhodamineB))[βAla]GEVN[Sta]VAEFRHDSGYEVHHQKLVFFAEDVGSNKD(X1)-NH2)
solubility in an aqueous medium (qualitative comparison of 24b and 25b): higher solubility
